# According to the RNAGym collection of RNA variant scans (doi:10.7554/elife.80360):
# B1: Twister Ribozyme (parent)
# chain: AACACUGCCAAUGCCGGUCCCAAGCCCGGAUAAAAGUGGAGGGGGCGG
# Variants of: B1
# Test: self-cleavage, relative activity (ratio to wild type); higher = more cleavage; co-transcriptional
row,Variant,self-cleavage
1,A10U A34U,0.818
2,A11G G16U,0.875
3,A11G G16C,0.406
4,A11C A33U,0.853
5,A11C G44U,0.791
6,A11C G45U,0.748
7,A10G G42U,0.493
8,A10G G42C,0.618
9,A11U A22U,0.908
10,A11G C25A,0.13
11,A11G C25U,0.737
12,U12A G29C,0.949
13,A11C C26U,0.137
14,U12A A32U,1.1
15,A10U A32C,0.983
16,A10U A32U,0.842
17,A10U A32G,0.896
18,A10C G43C,0.201
19,A10C G43A,0.337
20,A10C G43U,0.482
21,A11C G39A,0.601
22,A11C G39C,0.208
23,A11C G39U,0.214
24,A11G C46A,0.808

row,Variant,self-cleavage
1,A11G C46G,0.938
2,A10G G24C,0.131
3,A10G G24U,0.18
4,A11G A35C,0.903
5,A11C G36A,0.87
6,A11C G36U,0.8
7,A11C G48A,0.998
8,A11C G48U,1.06
9,A11C G48C,1.05
10,A10U A22C,0.93
11,A11U G44C,0.969
12,A11U G44U,1.07
13,A10C G24C,0.0859
14,A11G G41A,0.505
15,A11G G41U,0.65
16,A11G G36C,0.0984
17,A11G G36A,0.458
18,A11U G47U,0.98
19,A11U G47C,0.624
20,U12A A33G,0.969
21,U12A A33C,1.04
22,A11G U12G,0.743
23,A11G U12A,0.942
24,A10C U12G,1.06

row,Variant,self-cleavage
1,A11U G16U,0.544
2,A10G G28C,1.05
3,A11G C15A,0.567
4,A11C G24U,0.0789
5,A11C G24C,0.0648
6,A11C G24A,0.0913
7,A10U A35U,0.89
8,A11G G43U,0.374
9,A11U A32C,0.926
10,U12A A35C,1.09
11,U12A A35G,1.06
12,A10C G16C,0.526
13,A10C G16A,0.726
14,A10U G47U,1.01
15,A10U G47C,0.596
16,A10U G47A,0.946
17,A11G,0.932
18,A11C,0.906
19,A11U,1.04
20,U12A A23U,0.767
21,A10U U31G,0.948
22,A11C G17C,0.0996
23,A11G A22G,0.23
24,A10U A40C,0.305

row,Variant,self-cleavage
1,A10U A40U,0.111
2,A10C G41U,0.653
3,A10C G41C,0.23
4,A10C G41A,0.494
5,A11G G17A,0.372
6,A11G G17C,0.0792
7,A11G G17U,0.188
8,A11G G13C,0.345
9,A11G G13A,0.745
10,A10U G28U,0.929
11,A11G A32U,0.841
12,A10G G44U,1.04
13,A10G G44C,0.965
14,A10G G44A,0.881
15,U12A G17A,0.85
16,U12A G17U,0.41
17,A10U C25G,0.194
18,A10G A35U,0.943
19,A10G A35C,1.17
20,A10G A40C,0.46
21,A10G A40U,0.157
22,A10G A40G,0.185
23,A10U G44U,0.971
24,A10U G44C,0.937

row,Variant,self-cleavage
1,A11U G36A,0.559
2,A11G G24C,0.0551
3,A11G G24A,0.0843
4,A10G A11G,0.886
5,A10G C46A,0.939
6,A10G C46G,0.971
7,A11U A35G,0.919
8,A11C G16A,0.234
9,A11C G16U,0.0992
10,A10C G47U,0.741
11,A10C G47C,0.538
12,A10G G39A,0.564
13,A10U U37G,0.602
14,U12A G36A,0.924
15,A10G C15G,0.136
16,A10G C15A,0.707
17,A11C A40G,0.12
18,A11C A40C,0.14
19,A11C A40U,0.153
20,A11U G39A,0.63
21,A11G A23U,0.614
22,A10U G42U,0.447
23,A10C G13U,0.677
24,U12A G13U,0.577

row,Variant,self-cleavage
1,A11U C19A,0.386
2,A11U C19U,0.933
3,A11U C19G,0.616
4,A10C C26U,0.508
5,U12A C14U,1.05
6,A10U U12A,0.986
7,A10C G36C,0.688
8,A10G G38A,0.89
9,A11U G24C,0.0932
10,A10G G48U,1.15
11,A10G G48A,0.902
12,A10U C15G,0.062
13,A10U C15U,0.911
14,A10U C15A,0.619
15,A10G G13A,1.09
16,A10G G13U,0.79
17,A10G G13C,0.835
18,A10U U18C,0.506
19,A10U U18A,0.546
20,A10U U18G,0.115
21,U12A A40U,0.192
22,U12A A40G,0.136
23,A11C G29U,0.681
24,A11C G29A,0.531

row,Variant,self-cleavage
1,A11C G13C,0.164
2,A11C G13U,0.0589
3,A11C G13A,0.188
4,A10U G45U,0.871
5,A10U G45A,0.999
6,A10G C26A,0.518
7,A10G C26U,0.285
8,A10G G45C,0.639
9,A11G G39U,0.224
10,A10G G17A,1.02
11,A10G G17C,0.217
12,A10C U37C,0.767
13,U12A C26G,0.446
14,A11U G45C,0.733
15,A11U G45U,0.953
16,A10C U31G,0.737
17,A11U G13U,0.694
18,A11U G13A,0.95
19,A11C U37C,0.808
20,A11C U37G,0.742
21,A11C U37A,0.886
22,A10U G29U,0.939
23,A10G C19U,1.02
